{"source": "paper PMC2528289", "molecular_target": "T1, FliI, flagellar ATPase, full-length protein released from GST-FliI by thrombin (S. typhimurium SJW1103), P26465", "T1 chain": "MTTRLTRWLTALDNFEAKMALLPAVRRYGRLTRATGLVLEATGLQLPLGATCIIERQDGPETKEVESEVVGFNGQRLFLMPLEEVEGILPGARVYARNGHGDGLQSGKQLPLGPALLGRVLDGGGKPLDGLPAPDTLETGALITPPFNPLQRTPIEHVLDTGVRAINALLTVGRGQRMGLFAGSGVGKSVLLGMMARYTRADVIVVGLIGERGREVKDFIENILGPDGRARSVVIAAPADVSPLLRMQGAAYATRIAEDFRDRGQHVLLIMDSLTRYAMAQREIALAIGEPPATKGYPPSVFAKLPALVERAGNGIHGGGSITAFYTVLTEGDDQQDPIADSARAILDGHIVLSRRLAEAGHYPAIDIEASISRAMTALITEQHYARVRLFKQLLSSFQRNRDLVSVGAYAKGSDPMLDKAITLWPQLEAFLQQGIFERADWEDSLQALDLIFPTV", "test": "negative-stain electron microscopy with single particle analysis", "conditions": "remark: other sources report otherwise", "data": [{"binder": "FliI, flagellar ATPase, full-length protein released from GST-FliI by thrombin, P26465 1-456 (enzyme) MTTRLTRWLTALDNFEAKMALLPAVRRYGRLTRATGLVLEATGLQLPLGATCIIERQDGPETKEVESEVVGFNGQRLFLMPLEEVEGILPGARVYARNGHGDGLQSGKQLPLGPALLGRVLDGGGKPLDGLPAPDTLETGALITPPFNPLQRTPIEHVLDTGVRAINALLTVGRGQRMGLFAGSGVGKSVLLGMMARYTRADVIVVGLIGERGREVKDFIENILGPDGRARSVVIAAPADVSPLLRMQGAAYATRIAEDFRDRGQHVLLIMDSLTRYAMAQREIALAIGEPPATKGYPPSVFAKLPALVERAGNGIHGGGSITAFYTVLTEGDDQQDPIADSARAILDGHIVLSRRLAEAGHYPAIDIEASISRAMTALITEQHYARVRLFKQLLSSFQRNRDLVSVGAYAKGSDPMLDKAITLWPQLEAFLQQGIFERADWEDSLQALDLIFPTV", "values": [{"measurement": "stoichiometry N", "value": 6}]}]}
